Results as given in paper doi:10.1101/2022.06.21.497044 (bioRxiv, 2022).

Assays:
GST-ABI5 [1] = target: T1, GST-ABI5 (Arabidopsis thaliana, UniProt Q9SJN0 1-442); test: pull-down
T1 sequence: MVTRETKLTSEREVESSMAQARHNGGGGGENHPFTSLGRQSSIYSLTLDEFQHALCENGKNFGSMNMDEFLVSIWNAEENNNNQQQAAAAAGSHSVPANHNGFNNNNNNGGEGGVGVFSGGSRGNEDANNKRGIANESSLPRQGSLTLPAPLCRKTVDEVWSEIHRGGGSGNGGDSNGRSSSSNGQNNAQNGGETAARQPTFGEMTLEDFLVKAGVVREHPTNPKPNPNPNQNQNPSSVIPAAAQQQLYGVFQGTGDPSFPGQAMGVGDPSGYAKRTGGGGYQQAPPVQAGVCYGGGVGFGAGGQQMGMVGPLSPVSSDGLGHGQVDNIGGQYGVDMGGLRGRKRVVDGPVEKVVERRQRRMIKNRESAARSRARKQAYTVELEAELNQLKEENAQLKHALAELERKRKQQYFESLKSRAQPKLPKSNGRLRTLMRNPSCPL

GST-ABI5 [2] = target: T2, GST-ABI5 (Arabidopsis thaliana, UniProt Q9SJN0 1-442); test: EMSA
T2 sequence: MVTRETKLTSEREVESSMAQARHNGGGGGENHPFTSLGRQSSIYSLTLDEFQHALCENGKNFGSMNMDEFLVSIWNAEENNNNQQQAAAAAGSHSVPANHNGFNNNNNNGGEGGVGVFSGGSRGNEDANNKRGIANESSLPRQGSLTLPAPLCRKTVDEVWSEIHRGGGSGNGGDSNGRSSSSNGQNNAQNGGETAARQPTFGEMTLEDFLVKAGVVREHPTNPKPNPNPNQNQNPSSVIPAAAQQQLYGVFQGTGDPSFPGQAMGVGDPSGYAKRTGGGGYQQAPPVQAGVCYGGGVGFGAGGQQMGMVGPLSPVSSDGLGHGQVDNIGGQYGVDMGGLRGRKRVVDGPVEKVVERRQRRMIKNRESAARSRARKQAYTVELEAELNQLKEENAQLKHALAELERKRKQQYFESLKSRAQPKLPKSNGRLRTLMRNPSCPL

BBX31 (miP1a) = target: T3, BBX31 (miP1a) (Arabidopsis thaliana, UniProt Q9LRM4 1-121); test: EMSA
T3 sequence: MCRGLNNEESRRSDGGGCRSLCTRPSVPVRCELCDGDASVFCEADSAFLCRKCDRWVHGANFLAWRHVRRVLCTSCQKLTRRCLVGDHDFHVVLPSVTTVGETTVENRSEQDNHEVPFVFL

BBX30 (miP1b) = target: T4, BBX30 (miP1b) (Arabidopsis thaliana, UniProt Q1G3I2 1-117); test: EMSA
T4 sequence: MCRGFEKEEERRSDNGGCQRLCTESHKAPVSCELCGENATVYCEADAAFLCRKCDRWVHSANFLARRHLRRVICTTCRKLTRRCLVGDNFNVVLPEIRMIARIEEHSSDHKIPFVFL

B1: His-BBX30 (natural protein)
chain: MCRGFEKEEERRSDNGGCQRLCTESHKAPVSCELCGENATVYCEADAAFLCRKCDRWVHSANFLARRHLRRVICTTCRKLTRRCLVGDNFNVVLPEIRMIARIEEHSSDHKIPFVFL
GST-ABI5 [1]
  binding result: binds

B2: His-BBX31 (natural protein)
chain: MCRGLNNEESRRSDGGGCRSLCTRPSVPVRCELCDGDASVFCEADSAFLCRKCDRWVHGANFLAWRHVRRVLCTSCQKLTRRCLVGDHDFHVVLPSVTTVGETTVENRSEQDNHEVPFVFL
GST-ABI5 [1]
  binding result: binds

B3: BBX30 promoter probe (dsDNA)
DNA 1: GTCAATATTTTTCCACGTGTACAACCAGTTTA
DNA 2: TAAACTGGTTGTACACGTGGAAAAATATTGAC
GST-ABI5 [2]
  binding result: binds

B4: mutBBX30 probe (dsDNA)
DNA 1: GTCAATATTTTTCCAAAAATACAACCAGTTTA
DNA 2: TAAACTGGTTGTATTTTTGGAAAAATATTGAC
GST-ABI5 [2]
  binding result: no binding

B5: BBX31 promoter probe (dsDNA)
DNA 1: AAATAACAGGGCAAGATTCATCCACGTGTCCAACAACAACACAACACAAA
DNA 2: TTTGTGTTGTGTTGTTGTTGGACACGTGGATGAATCTTGCCCTGTTATTT
GST-ABI5 [2]
  binding result: binds

B6: mutBBX31 probe (dsDNA)
DNA 1: AAATAACAGGGCAAGATTCATCACCGGGTCCAACAACAACACAACACAAA
DNA 2: TTTGTGTTGTGTTGTTGTTGGACCCGGTGATGAATCTTGCCCTGTTATTT
GST-ABI5 [2]
  binding result: no binding

B7: ABI5 promoter probe (dsDNA)
DNA 1: GCAAGAAACAGAAGAGAGACACGTGCAGGACACGTGTCGTCCGCAGCCGAACGGA
DNA 2: TCCGTTCGGCTGCGGACGACACGTGTCCTGCACGTGTCTCTCTTCTGTTTCTTGC
BBX31 (miP1a)
  binding result: no binding
BBX30 (miP1b)
  binding result: no binding

B8: EM6 promoter probe (dsDNA)
DNA 1: AATAAAGTCAGACACGTGGCATGTCACCAA
DNA 2: TTGGTGACATGCCACGTGTCTGACTTTATT
BBX31 (miP1a)
  binding result: no binding
BBX30 (miP1b)
  binding result: no binding
